Data: US20220177578A1 (MAGENTA THERAPEUTICS, published 2022)

Target: T1, Human CD117 antigen (recombinant CD117 ectodomain) (human, UniProt P10721 26-520)
T1 construct: also called c-kit; ectodomain of human CD117
Test: chemical cross-linking, High-Mass MALDI MS and nLC-Orbitrap MS of the CD117/Ab67 complex
Method: A sample of Ab67 was diluted in distilled water to a concentration of 2.7 mg/mL. 1 μL of the diluted Ab67 was then mixed with 1 μL of a matrix composed of a re-crystallized sinapinic acid matrix (10 mg/mL) in acetonitrile/water (1:1, v/v), TFA (0.1% (K200 MALDI Kit). The mixture was submitted to cross-linking using CovalX's K200 MALDI MS analysis kit. The protein solutions were mixed with 1 μl of K200 Stabilizer reagent (2 mg/ml) and incubated at room temperature. After the incubation time (180 minutes) the samples were prepared for MALDI analysis. The samples were analyzed by High-Mass MALDI MS immediately after crystallization at room temperature.
After digestion, formic acid 1% final was added to the solution. After proteolysis, 10 ul of the peptide solution generated by proteolysis were loaded onto a nano-liquid chromatography system (Ultimate 3000-RSLC). The cross-linked peptides were analyzed using Xquest version 2.0 and Stavrox 3.6. software. nLC-LTQ-Orbitrap MS/MS analysis using a nLC Ultimate 3000-RSLC system in line with a LTQ-Orbitrap mass spectrometer (Thermo Scientific) was performed.

T1 sequence (P10721 other isoform, or with tags, fused parts or gaps): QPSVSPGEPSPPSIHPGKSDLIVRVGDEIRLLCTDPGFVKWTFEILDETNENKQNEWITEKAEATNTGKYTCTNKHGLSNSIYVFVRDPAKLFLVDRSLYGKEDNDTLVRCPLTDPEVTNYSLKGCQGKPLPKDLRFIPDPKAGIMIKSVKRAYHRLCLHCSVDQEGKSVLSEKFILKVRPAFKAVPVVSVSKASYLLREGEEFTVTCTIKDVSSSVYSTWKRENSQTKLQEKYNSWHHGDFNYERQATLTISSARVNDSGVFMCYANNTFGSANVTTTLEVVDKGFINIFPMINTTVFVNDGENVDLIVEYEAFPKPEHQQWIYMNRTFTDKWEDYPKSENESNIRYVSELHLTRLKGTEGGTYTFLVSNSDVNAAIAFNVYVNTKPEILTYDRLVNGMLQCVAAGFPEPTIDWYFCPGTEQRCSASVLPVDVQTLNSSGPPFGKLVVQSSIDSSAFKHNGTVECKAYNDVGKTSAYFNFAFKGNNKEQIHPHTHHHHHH

B1: Antibody 67 (Ab67), human anti-CD117 antibody (antibody, V domains shown)
VH: EVQLVESGGGLVQPGGSLRLSCAASGFTFSDADMDWVRQAPGKGLEWVGRTRNKAGSYTTEYAASVKGRFTISRDDSKNSLYLQMNSLKTEDTAVYYCAREPKYWIDFDLWGRGTLVTVSS
VL: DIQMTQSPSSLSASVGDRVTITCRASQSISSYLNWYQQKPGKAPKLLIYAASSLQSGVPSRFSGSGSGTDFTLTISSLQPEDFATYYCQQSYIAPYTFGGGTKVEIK
notes: also called Antibody HC-67/LC-67
binding result: binds
